In the assay the target is integrin alpha(IIb)beta(3) (UniProt P08514). In words: cell-based or functional assay.

Data on 1 molecule can be found in US20240084280A1.

B1: trimucrin variant RR (protein)
chain: EAGEECDCGSPENPCCDAATCKLRPGAQCAEGLCCDQCRFKKKRTICRRAKGDRRDDRCTGQSADCPRNRLYG
Turning to B1, the IC50: platelet aggregation (ADP-induced, platelet-rich plasma) was determined as 52.5 nM.
